These are literature values, as cited in patent US6878743B2, “Small molecule inhibitors of caspases” (Sunesis Pharmaceuticals, Inc., priority 2001, dated 2005).

For one data set, the target named is T1, caspase-1 (Homo sapiens, UniProt P29466).
T1 sequence (P29466 120-297 limits assumed): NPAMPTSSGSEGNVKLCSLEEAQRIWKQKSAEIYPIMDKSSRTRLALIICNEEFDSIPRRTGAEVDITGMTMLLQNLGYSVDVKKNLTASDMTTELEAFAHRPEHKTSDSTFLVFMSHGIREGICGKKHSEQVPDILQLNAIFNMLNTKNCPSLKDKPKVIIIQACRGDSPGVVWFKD
T1 sequence (P29466 317-404 limits assumed): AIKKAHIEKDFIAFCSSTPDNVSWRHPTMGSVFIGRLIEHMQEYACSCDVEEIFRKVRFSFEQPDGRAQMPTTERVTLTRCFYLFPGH
The note with it: Garcia-Calvo et al. 1998.

In a further data set the target is T2, caspase-3 (Homo sapiens, UniProt P42574).
T2 sequence (P42574 29-175 limits assumed): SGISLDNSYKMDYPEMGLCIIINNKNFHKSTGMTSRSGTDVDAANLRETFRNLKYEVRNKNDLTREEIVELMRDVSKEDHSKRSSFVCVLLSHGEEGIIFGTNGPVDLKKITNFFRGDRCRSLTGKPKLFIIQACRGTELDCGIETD
T2 sequence (P42574 176-277 limits assumed): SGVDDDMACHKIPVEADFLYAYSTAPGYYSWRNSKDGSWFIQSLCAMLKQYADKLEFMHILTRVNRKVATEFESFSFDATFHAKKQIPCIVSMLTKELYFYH
The note with it: Garcia-Calvo et al. 1998.

For orientation: Ki means a measure of affinity in units of concentration, obtained from inhibition or displacement. For the substance Ac-Asp-Glu-Val-Asp-CHO, the Ki with caspase-1 is 18 nM.

Consider Ac-Tyr-Val-Ala-Asp-CHO, for which the Ki with caspase-3 is 1960 nM; with caspase-1, 0.056 nM.
